Earlier results, collected in article PMC12186298, “Phase 1 clinical trial of eneboparatide, a novel PTH receptor 1 agonist” (Endocrine Connections, 2025).

Tested on: patients with hypoparathyroidism
Conditions: not associated with increased elimination of phosphorus in urine; cited from earlier work
Method: Hyperphosphataemia enhances the risk of long-term development of cardiovascular diseases that is particularly important in patients with renal insufficiency, but also exists in patients with normal renal function ([16]). […] This decrease in sPh was apparent after 14 days of treatment in connection with a reduction in the rate of renal reabsorption of phosphorus. The impact of eneboparatide on sPh was primarily observed within the first 12 h after dosing.

B1: PTH(1–84): parathyroid hormone (1–84) therapy, cited comparator (protein, UniProt P01270 32-115, looked up)
Parathyroid hormone: SVSEIQLMHNLGKHLNSMERVEWLRKKLQDVHNFVALGAPLAPRDAGSQRPRKKEDNVLVESHEKSLGEADKADVNVLTKAKSQ
modifications: Parathyroid hormone
notes: parathyroid hormone (1–84) therapy, cited comparator
For B1, the “sPh after the onset of therapy” value is listed as “decreased rapidly and significantly”.
